{
  "source": "patent US6495317B1",
  "about": "“DNA encodingmannose 6-phosphate reductase and recombinants produced therefrom” (Board of Trustees of Michigan State University, priority 1996, dated 2002)",
  "molecules": {"B1": {"name": "Recombinant M6PR: mannose 6-phosphate reductase purified from IPTG-induced E. coli clone D carrying celery cDNA (SEQ ID NO:2) (protein)", "chain": "MAITLNSGFKMPVLGLGVWRMDRNEIKNLLLSAINLGYRHFDCAADYKNELEVGEAFKEAFDTDLVKREDLFITTKLWNSDHGHVIEACKNSLKKLQLEYLDLYLIHFPMASKHSGIGTTRSILDDEGVWEVDATISLEATWHEMEKLVEMGLVRSIGISNYDVYLTRDILSYSKIKPAVNQIETHPYFQRDSLIKFCQKYGIAITAHTPLGGALANTERFGSVSCLDDPVLKKLSDKHNKSPAQIVLRWGVQRNTIVIPKSSKTKRLEENINIFDFELSKEDMELIKTMERNQRSNTPAKAWGIDVYA"}},
  "key": {"[1]": {"test_system": "mannose 6-phosphate reductase (M6PR)", "assay": "M6PR activity assay (NADPH oxidation), specific activity of purified enzyme", "type": "biochemical, celery (Apium graveolens)", "experimental": "Three putative M6PR and one non-positive clone (as determined by antibody screening) were tested for M6PR activity. Duplicate 10 ml cultures of each clone were grown in LB+ampicillin (amp; […]). Once an average OD600 of 0.5 had been attained one culture of each pair was induced by the addition of isopropyl-β-D-thiogalactopyranoside (IPTG; final concentration 10 mM). […] Cultures were maintained at 30° C. for a further 3 h and were harvested at an average OD600 of 1.29±0.02. Cells were pelleted by centrifugation (2000×g for 5 min) and washed twice by resuspending the pellets in 5 ml Tris (100 mM, pH 7.5) containing […], with a centrifugation step between each wash. After the final wash pelleted cells were maintained on ice. Just prior to disruption the cells were resuspended in 4 ml of extraction buffer (100 mM Tris-HCl pH 7.5, […], 10 mM DTT and 0.1% Triton X-100) and transferred to blood dilution vials (American Scientific Products, McGaw Park, Ill.). Cells were ruptured by suspending the vial containing the cells 0.5 cm above the cuphorn probe of a Heat Systems W-385 sonicator (Misonics Farmingdale, N.Y.) and subjecting them to 2 minutes sonication at full power. Coolant was circulated around the vial to maintain the temperature at approximately 4° C. After sonication, 1.5 ml aliquots of the homogenate were centrifuged at 13,000×g for 5 minutes at 4° C. […]"}, "[2]": {"test_system": "mannose 6-phosphate reductase (M6PR)", "assay": "Kinetic characterization of purified M6PR (mannose 6-phosphate and NADPH kinetics)", "type": "biochemical, celery (Apium graveolens)", "details": "30° C., 33 mM Tris-HCl pH 7.5, 3 mM DTT; for Km: read-out: km", "excerpt": "Subsequent purification steps were essentially as described in Loescher et al., Plant Physiol. 98:1396-1402 (1992) except for Reactive Yellow 86 (RY86) chromatography. Here the active fraction from the gel filtration step was split in two, and each fraction run separately on the RY86 column as described in Loescher et al., Plant Physiol. 98:1396-1402 (1992). The active fractions were pooled and either diluted by the addition of 0.5 v of column buffer or desalted using centrifugal concentrating devices (30 kD cut-off membranes) and washed with 2 volumes of column buffer. This step was performed to dilute or remove NADPH. The sample was then loaded back onto the RY86 column and activity eluted in a linear gradient between 0 and 0.2 mM NADPH in column buffer. The purified M6PR was desalted and concentrated using centrifugal filtration and was either used immediately for kinetic characterization or stored at −21° C. after adding glycerol (1:1, v:v)."}},
  "note": "Like-named read-outs stand apart in the source and are kept apart here.",
  "data": [
    {"molecule": "B1", "values": [
      {"measurement": "average specific activity of the purified enzyme", "setting": "[1]; average of three preparations, 1 mU = 1 nmol NADPH oxidized per minute", "result": "3926±833", "unit": "mU/mg protein"},
      {"measurement": "specific activity of the purified enzyme", "setting": "[1]; final two preparations", "result": "4441±13", "unit": "mU/mg"},
      {"measurement": "Vmax; NADPH", "setting": "[2]; 9 NADPH concentrations 1-50 μM, mannose 6-phosphate 12 mM", "result": "6.0 ± 2.3 (2;3) μmol mg prot^−1 min^−1"},
      {"measurement": "Km", "setting": "[2]; 9 NADPH concentrations 1-50 μM, mannose 6-phosphate 12 mM, NADPH", "result": "0.0062 ± 0.0024", "unit": "mM"},
      {"measurement": "Vmax; mannose 6-P", "setting": "[2]; 12 M6P concentrations 1-50 mM, saturating NADPH 200 μM", "result": "8.0 ± 1.9 (4;6) μmol mg prot^−1 min^−1"},
      {"measurement": "Km", "setting": "[2]; 12 M6P concentrations 1-50 mM, saturating NADPH 200 μM, mannose 6-P", "result": "10.1 ± 1.4", "unit": "mM"}
    ]}
  ]
}
